Data from article PMC2362355, “The two phyto-oestrogens genistein and quercetin exert different effects on oestrogen receptor function”.

Biological target: oestrogen receptor (ER), recombinant human (human, UniProt P03372 1-595)
Assay: EMSA; 10 nM oestradiol; supershifted by anti-ER HC-20; 20 mM HEPES pH 7.9, 60 mM KCl, 5 mM MgCl2, 2 mM DTT, 10% glycerol, 100 ug (unit prefix not given) BSA, 380 fmol ER, 6 ng ERE, 20 ul; 20 C 20 min then 37 C 15 min; 4% native PAGE in 90 mM Tris-borate, 2.5 mM EDTA pH 8.3
Conditions: protein: commercial; label: 32P end label (T4 PNK); (only one strand printed, described as complementary strands, 27 bp)

oestrogen receptor (ER), recombinant human, sequence (P03372 whole entry): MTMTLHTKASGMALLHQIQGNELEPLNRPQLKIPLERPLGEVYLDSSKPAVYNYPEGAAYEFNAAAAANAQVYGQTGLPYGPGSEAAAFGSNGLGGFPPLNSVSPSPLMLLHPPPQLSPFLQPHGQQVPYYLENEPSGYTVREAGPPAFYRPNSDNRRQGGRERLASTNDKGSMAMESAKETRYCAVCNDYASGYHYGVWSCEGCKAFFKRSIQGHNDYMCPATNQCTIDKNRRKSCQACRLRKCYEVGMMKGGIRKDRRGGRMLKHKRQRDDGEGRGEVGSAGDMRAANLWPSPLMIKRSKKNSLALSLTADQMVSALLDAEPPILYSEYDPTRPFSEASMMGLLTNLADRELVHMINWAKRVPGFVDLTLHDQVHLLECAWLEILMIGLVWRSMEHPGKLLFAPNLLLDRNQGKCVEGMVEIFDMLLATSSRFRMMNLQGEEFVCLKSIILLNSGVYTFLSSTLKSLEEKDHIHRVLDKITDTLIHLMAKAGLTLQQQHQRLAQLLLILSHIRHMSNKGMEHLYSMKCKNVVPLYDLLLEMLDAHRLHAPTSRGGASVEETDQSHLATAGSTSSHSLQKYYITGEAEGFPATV

B1: consensus ERE 27 bp (dsDNA)
DNA 1: GATCCAGGTCACAGTGACCTGGGCCCG
DNA 2: CGGGCCCAGGTCACTGTGACCTGGATC
B1: binds.
